Assay in all cases: Kinase Profiling Assay
Holding throughout (format): biochemical
What all share (details): 100 μM

The target in one experiment is T1, PKG1β (h) (Homo sapiens, UniProt Q13976).
T1 sequence (Q13976 1-686 isoform Q13976-2): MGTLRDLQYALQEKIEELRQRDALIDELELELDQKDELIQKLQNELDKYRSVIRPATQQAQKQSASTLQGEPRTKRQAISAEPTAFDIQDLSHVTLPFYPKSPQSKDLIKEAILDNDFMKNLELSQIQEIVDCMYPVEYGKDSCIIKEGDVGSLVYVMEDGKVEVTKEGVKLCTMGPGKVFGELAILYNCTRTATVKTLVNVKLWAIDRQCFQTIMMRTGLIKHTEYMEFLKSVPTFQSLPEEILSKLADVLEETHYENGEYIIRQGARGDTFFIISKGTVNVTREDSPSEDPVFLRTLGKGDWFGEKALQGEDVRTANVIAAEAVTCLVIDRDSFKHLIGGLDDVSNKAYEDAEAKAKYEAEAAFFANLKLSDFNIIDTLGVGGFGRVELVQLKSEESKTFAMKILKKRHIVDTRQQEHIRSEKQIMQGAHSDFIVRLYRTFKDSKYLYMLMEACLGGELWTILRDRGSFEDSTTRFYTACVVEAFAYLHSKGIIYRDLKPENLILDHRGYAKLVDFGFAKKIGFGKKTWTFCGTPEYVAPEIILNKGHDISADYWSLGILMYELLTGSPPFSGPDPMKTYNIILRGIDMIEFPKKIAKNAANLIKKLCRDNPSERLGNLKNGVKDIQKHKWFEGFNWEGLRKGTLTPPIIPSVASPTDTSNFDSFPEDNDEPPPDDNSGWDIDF
A digest of the protocol:
(§1)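 Radiometric filter-binding format: cationic substrate takes up labeled phosphate from ATP unless the inhibitor peptide blocks the kinase. Substrate bound to an anionic filter, scintillation-counted, normalized to 100% activity control. Duplicates; part of a 266-kinase selectivity panel for MK2 peptides.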

The target in another experiment is T2, SGK3 (h) (Homo sapiens, UniProt Q96BR1).
T2 sequence (Q96BR1 1-496): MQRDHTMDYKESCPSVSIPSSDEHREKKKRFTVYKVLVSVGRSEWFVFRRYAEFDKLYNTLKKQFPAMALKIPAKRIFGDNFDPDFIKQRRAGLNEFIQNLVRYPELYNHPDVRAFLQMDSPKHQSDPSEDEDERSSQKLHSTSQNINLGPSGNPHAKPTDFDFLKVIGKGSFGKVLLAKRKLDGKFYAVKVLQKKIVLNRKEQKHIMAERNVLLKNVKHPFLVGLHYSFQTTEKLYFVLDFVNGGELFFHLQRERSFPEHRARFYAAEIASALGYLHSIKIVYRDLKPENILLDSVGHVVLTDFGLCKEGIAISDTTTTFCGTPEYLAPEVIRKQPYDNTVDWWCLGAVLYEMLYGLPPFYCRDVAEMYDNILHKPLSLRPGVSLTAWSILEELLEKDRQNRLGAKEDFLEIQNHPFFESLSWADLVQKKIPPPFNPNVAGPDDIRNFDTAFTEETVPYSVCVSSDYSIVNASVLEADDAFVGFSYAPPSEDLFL
The method in brief:
as §1

The target in a further experiment is T3, MST2 (h) (Homo sapiens, UniProt Q13188).
T3 construct: purchased Millipore
T3 sequence (Q13188 1-491): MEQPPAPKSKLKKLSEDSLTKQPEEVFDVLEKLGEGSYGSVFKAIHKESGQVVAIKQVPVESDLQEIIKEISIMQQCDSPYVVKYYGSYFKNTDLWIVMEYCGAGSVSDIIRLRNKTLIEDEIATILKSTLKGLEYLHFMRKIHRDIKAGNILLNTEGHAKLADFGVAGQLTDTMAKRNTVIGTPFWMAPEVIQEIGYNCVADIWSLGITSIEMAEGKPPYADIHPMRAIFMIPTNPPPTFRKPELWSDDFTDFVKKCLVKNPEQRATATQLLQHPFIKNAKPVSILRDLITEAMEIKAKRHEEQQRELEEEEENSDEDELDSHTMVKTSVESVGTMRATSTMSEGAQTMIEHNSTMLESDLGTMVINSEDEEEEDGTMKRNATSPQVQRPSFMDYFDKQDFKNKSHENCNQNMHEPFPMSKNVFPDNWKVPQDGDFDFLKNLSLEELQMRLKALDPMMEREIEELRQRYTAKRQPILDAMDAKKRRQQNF
A digest of the protocol: as §1

The target of a further experiment is SAPK2a(T106M) (h) (Homo sapiens, UniProt Q16539, T106M). The method in brief: as §1
Chain of SAPK2a(T106M) (h) (Q16539 whole entry T106M): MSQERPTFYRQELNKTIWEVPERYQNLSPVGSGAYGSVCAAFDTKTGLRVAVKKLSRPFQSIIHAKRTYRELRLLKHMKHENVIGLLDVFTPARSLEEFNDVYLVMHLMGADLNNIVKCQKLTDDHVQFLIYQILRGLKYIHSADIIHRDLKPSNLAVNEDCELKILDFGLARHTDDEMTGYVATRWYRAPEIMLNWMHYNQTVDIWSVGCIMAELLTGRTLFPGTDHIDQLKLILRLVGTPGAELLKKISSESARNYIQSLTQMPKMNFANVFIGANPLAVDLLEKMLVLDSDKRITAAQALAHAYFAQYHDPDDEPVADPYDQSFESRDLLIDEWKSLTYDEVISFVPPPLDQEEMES
A further experiment deals with FGFR1 (h) (Homo sapiens, UniProt P11362). A digest of the protocol:
as §1

In another experiment the target is Ret (h) (Homo sapiens, UniProt P07949). The method in brief:
as §1

The target of another experiment is T4, DAPK1 (h) (Homo sapiens, UniProt P53355).
T4 construct: purchased Millipore
T4 sequence (P53355 whole entry): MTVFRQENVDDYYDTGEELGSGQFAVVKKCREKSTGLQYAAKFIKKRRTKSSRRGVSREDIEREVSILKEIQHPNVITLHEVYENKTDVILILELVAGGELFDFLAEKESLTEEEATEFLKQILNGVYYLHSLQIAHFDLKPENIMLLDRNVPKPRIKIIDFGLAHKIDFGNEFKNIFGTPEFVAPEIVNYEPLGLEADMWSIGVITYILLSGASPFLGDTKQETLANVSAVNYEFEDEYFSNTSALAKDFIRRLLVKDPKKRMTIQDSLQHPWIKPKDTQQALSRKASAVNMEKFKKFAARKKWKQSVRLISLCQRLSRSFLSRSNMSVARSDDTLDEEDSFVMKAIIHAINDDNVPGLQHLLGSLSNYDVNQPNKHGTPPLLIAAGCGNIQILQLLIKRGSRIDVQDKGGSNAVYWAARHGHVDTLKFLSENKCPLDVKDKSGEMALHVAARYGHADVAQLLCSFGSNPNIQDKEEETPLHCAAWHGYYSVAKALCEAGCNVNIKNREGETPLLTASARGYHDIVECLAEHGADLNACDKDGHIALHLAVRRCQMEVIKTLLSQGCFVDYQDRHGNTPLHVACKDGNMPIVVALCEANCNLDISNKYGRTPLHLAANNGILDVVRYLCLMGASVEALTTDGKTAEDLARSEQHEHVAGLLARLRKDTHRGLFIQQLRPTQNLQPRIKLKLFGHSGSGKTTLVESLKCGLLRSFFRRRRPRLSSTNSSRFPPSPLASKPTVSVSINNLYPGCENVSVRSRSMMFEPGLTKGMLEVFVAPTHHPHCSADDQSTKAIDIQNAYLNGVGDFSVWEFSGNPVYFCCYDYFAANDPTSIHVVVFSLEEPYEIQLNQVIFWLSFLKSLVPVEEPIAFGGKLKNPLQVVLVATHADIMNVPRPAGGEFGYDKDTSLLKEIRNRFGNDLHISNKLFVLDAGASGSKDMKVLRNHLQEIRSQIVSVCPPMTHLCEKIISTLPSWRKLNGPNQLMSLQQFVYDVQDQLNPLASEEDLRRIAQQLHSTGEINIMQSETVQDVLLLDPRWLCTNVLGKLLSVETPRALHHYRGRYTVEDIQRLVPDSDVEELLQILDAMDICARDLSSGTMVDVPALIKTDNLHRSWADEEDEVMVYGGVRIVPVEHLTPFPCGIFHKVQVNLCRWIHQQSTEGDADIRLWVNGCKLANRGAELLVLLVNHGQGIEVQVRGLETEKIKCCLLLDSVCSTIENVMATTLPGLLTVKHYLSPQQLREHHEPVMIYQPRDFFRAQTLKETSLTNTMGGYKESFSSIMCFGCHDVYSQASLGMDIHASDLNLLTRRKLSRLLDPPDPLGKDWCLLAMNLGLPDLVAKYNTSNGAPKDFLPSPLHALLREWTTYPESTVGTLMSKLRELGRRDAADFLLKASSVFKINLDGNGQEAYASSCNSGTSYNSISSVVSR
The method in brief: as §1

In the next experiment the target is T5, ALK4 (h) (Homo sapiens, UniProt P36896).
T5 sequence (P36896 24-505): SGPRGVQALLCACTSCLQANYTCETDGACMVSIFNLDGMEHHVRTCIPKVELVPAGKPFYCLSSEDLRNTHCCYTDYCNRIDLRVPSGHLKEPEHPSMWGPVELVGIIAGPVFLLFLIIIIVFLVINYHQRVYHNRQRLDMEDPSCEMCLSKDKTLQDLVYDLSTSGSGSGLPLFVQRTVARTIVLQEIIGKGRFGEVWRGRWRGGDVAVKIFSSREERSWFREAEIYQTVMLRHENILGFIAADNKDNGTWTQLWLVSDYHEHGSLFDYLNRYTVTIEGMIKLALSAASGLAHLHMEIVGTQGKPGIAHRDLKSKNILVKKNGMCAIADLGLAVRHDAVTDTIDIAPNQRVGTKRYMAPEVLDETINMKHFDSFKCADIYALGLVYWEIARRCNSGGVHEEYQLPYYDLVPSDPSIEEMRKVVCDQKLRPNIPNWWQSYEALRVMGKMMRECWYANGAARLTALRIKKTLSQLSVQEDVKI
A digest of the protocol: as §1

The target in a further experiment is Flt3(D835Y) (h) (Homo sapiens, UniProt P36888, D835Y). The method in brief: as §1

Chain of FGFR1 (h) (P11362 22-822): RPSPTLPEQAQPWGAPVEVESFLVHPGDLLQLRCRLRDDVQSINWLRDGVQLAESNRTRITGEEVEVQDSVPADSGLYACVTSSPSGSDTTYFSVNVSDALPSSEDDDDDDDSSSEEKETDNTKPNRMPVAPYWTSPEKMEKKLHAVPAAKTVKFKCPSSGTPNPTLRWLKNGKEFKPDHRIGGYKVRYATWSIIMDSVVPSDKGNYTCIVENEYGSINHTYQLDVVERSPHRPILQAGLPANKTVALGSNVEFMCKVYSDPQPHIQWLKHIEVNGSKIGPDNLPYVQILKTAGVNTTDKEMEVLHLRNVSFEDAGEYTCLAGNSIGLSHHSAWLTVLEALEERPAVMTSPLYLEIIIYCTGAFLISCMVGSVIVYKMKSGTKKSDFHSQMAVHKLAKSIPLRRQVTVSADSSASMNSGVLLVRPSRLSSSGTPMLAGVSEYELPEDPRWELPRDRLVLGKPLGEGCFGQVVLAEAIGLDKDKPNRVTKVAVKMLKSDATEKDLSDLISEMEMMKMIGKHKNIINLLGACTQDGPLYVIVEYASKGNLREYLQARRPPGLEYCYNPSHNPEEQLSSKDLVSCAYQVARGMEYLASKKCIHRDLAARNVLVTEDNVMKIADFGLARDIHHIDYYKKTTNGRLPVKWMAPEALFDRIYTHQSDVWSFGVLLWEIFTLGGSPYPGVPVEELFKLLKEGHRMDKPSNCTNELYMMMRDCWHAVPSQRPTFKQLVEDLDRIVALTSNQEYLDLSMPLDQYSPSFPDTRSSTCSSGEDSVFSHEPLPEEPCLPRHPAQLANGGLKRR

On to KAFAKLAARLYRKALARQLGVAA [MMI-0400], for which the “% activity” value in the experiment with PKG1β (h) is listed as 53%; with SGK3 (h), 8%; with MST2 (h) it was 11%; with SAPK2a(T106M) (h), 99%; with FGFR1 (h), 59%; in the experiment with Ret (h), 145%. Moreover, the “% activity” value in the experiment with DAPK1 (h) came out at 36%; with ALK4 (h), 130%; in the experiment with Flt3(D835Y) (h) it was 71%.

With “YARAAARQARAKALNRQLGVA (Mammalian) [MMI-0200]”, the “% activity” value came out at 57% with PKG1β (h); 58% with SGK3 (h); 100% with SAPK2a(T106M) (h); 97% in the experiment with FGFR1 (h); 96% in the experiment with Ret (h); 152% with ALK4 (h).

With “HRRIKAWLKKIKALARQLGVAA (Mammalian) [MMI-0500]”, the “% activity” value in the experiment with PKG1β (h) is reported as 24%; with SGK3 (h), −3%; in the experiment with MST2 (h), 2%; with SAPK2a(T106M) (h) it was 32%; in the experiment with FGFR1 (h), 18%; with Ret (h), 174%. The “% activity” value in the experiment with DAPK1 (h) is recorded as 0%; with ALK4 (h) it was 81%; with Flt3(D835Y) (h), 65%.

As to FAKLAARLYRKALARQLGVAA [MMI-0300], the “% activity” value with PKG1β (h) stood at 50%; with SGK3 (h), 10%; in the experiment with MST2 (h) it was 19%; with SAPK2a(T106M) (h), 97%; with FGFR1 (h), 55%; with Ret (h) it was 140%. The “% activity” value is 46% with DAPK1 (h), 140% in the experiment with ALK4 (h) and 80% in the experiment with Flt3(D835Y) (h).

The record behind these values is US10500249B2, “Compositions and methods for preventing or treating diseases, conditions, or processes characterized by aberrant fibroblast proliferation and extracellular matrix deposition” (MOERAE MATRIX, INC., priority 2014, dated 2019).
